According to article PMC8368218 (Cell Discovery, 2021):
Where “and” joins values, the source holds several entries; their conditions need not be identical. Equal values may be shown once.

B1: SARS-CoV-2 N^11–24 (domain or fragment)
chain: NAPRITFGGPSDST
notes: also called fragment from the N-IDR of N protein

How the values were obtained:
G3BP1^NTF2 [1] = target: G3BP1^NTF2 (UniProt Q13283); assay: ITC
G3BP1^NTF2 [2] = target: T1, G3BP1^NTF2 (UniProt Q13283 11-133); assay: ITC; details: both partners purified
T1 construct: also called NTF2 domain of G3BP1
T1 sequence (Q13283 11-133): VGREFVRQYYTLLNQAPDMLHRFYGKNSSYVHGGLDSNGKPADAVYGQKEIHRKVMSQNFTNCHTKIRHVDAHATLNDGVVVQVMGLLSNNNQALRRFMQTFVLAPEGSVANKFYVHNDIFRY

Sequence of G3BP1^NTF2 (UniProt Q13283) (Q13283 11-133): as above

Molecule | fold reduction of affinity against N^11–24 wild type (G3BP1^NTF2 [1]) | Kd (G3BP1^NTF2 [2])
SARS-CoV-2 N^11–24 F/A (from UniProt P0DTC9 11-24) (domain or fragment) | 7 fold and 6 fold | –
SARS-CoV-2 N^11–24 I/A (from UniProt P0DTC9 11-24) (domain or fragment) | 6 fold and 7 fold | –
B1 | – | ~10 µM
